Here are results for one protein from paper PMC2185538, “Purification of the full-length Xenopus interphotoreceptor retinoid binding protein and growth of diffraction-quality crystals” (Molecular Vision, 2007).

This series concerns the molecule itself. Briefly: SEC; Sephacryl S-300HR 2.6 x 100 cm, 25 mM Tris-HCl pH 7.5 at 4 °C, 50 mM NaCl, 1 mM DTT; dimer between elution volumes 212 and 250 ml.

B1: recombinant full-length four-module Xenopus interphotoreceptor retinoid-binding protein (natural protein)
chain: not shown
notes: begins FQPSL; also called xIRBP; Xenopus IRBP; source: E. coli Top10, thioredoxin fusion cleaved with enterokinase, purified (HisTrap twice, Sephacryl S-300HR); not shown: thioredoxin with His-patch, N-terminal, cleaved
What is called stoichiometry N is a count of units in the complex or per binding partner. Regarding B1, the “stoichiometry N” value worked out at 2.
